Experimental data from patent publication US20140161821A1, “TREATMENT WITH ANTI-PCSK9 ANTIBODIES” (PFIZER INC., priority 2011, published 2014).

How the values were obtained:
PCSK9 [1] = target: T1, PCSK9 (Mus musculus, UniProt Q80W65); assay: Serum cholesterol in C57BL/6 mice after single IP dose; type: in vivo; conditions: 10 mg/kg single IP
T1 construct: endogenous in cells; host or cells: live C57BL/6 mice (in vivo, serum PCSK9)
Protocol: Serum cholesterol levels recovered to 69 mg/dL by day 7 post-treatment.

[2] = Example 3 clinical study, single IV dose on stable atorvastatin: L1L3 pharmacokinetics; conditions: geometric mean
Protocol: Infusion rates were carefully controlled by an infusion device per protocol. Atorvastatin (40 mg daily) was administered as described below in the study protocol. Subjects self-administered atorvastatin during their participation in this study except from Days 1 through 7 during their confinement to the clinic where the same dose was administered by qualified site personnel.
The subjects returned to the clinical research unit for subsequent visits.
(§1) In the study, the incidence of subjects meeting toxicity or intolerable dose criteria was measured. Incidence of treatment emergent adverse events (TEAEs) categorized by severity and causal relationship to study drug was also be measured. The timeframe for measurement of each of the above outcomes was two months.
Dose Administration: subjects took sponsor-provided atorvastatin (40 mg). […] Subjects fasted at least 10 hours prior to the lipid panel blood sample on Days 5 and 6.

[3] = Example 2 clinical study: safety and adverse events; type: in vivo; conditions: single IV 0.3-18 mg/kg
Protocol: The study entailed a randomized, placebo-controlled, ascending, single dose study of L1L3. The subjects, investigator, and site personnel (except site personnel responsible for drug preparation) were blinded to treatment assignments, as was the CRO designee; while the Sponsor clinical research team was unblinded. The study was conducted in 6 planned cohorts of 8 subjects per cohort in an effort to seek a maximum tolerated dose or MTD (total of approximately 48 subjects). […] Doses were administered following an overnight fast as an intravenous infusion over 60 minutes. […] Infusions will be administered as a single infusion over 60 minutes.
The dosing schedule was adjusted to allow administration of lower, intermediate, or higher doses to obtain a maximum tolerated dose and no effect dose. Each subject enrolled into the study, regardless of cohort assignment, received only one dose of study drug during their study participation.

[4] = PK study, single bolus i.v. injection in cynomolgus monkeys, total antibody concentration; type: in vivo
PCSK9 [5] = target: T2, PCSK9 (Homo sapiens, UniProt Q8NBP7); assay: Example 6 clinical study, IV doses every 4 weeks on stable statin: lipids; type: in vivo; conditions: for LDL-C lowering, % below baseline: by Day 29 (FIG. 15)
T2 construct: PCSK9 antagonist antibody that antagonizes circulating PCSK9; endogenous in cells; host or cells: human subjects in clinical trials (in vivo, circulating PCSK9)
T2 sequence (Q8NBP7 153-692): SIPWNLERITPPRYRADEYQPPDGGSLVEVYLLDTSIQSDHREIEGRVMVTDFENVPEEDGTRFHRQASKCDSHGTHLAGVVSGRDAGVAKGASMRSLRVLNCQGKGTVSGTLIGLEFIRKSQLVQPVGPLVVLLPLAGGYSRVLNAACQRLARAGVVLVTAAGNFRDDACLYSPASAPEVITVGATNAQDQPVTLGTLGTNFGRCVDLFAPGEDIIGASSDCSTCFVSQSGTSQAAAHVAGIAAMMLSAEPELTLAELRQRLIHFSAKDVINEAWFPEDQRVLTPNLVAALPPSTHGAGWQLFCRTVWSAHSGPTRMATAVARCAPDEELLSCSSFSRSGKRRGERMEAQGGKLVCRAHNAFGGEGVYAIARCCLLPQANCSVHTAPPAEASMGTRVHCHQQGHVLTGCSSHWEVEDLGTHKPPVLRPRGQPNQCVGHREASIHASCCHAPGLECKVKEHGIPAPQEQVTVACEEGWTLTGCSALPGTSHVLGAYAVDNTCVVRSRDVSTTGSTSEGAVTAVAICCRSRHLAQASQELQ
T2 sequence (Q8NBP7 31-152 partner limits assumed): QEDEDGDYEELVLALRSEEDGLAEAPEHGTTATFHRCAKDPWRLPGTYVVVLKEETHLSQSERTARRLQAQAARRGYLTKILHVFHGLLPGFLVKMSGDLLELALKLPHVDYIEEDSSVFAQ
Protocol: This study was a randomized, multi center, double blind, placebo control, parallel designed trial with a 3 week screening period, 12 week treatment period and 8 week follow up period.
Subjects enrolled in the study met all of the following criteria: men and women subjects greater than equal to age of 18; body mass index of 18.5 to 40 kg/m^2; total body weight greater than 50 kg (110 lbs) and less than 150 kg (330 lbs); on a stable daily dose of a statin, defined as atorvastatin 40 or 80 mg, rosuvastatin 20 or 40 mg or simvastatin 40 or 80 mg for a minimum of 45 days prior to Day 1; lipids meet the following criteria at two qualifying visits (screening and Day −7): fasting LDL-C greater than or equal to 100 mg/dL, ;
The pre-specified primary efficacy endpoint was the percentage change from baseline of LDL-C at Day 85 analyzed using an ANCOVA model. The final ANCOVA model contained terms for baseline LDL-C and treatment. To preserve the overall type I error rate at a level of 0.05 for the primary endpoint analysis, a Haybittle-Peto, boundary with 0.001 alpha spent was employed.
The LDL-C data were subsequently analyzed using mixed model repeated measures to estimate both the treatment by time and empirical dose-response profiles.

PCSK9 [6] = target: T3, PCSK9 (Rattus norvegicus, UniProt P59996); assay: Dose-response of serum cholesterol and triglycerides in Sprague-Dawley rats, single IP dose; type: in vivo
T3 construct: endogenous in cells; host or cells: live Sprague-Dawley rats (in vivo, serum PCSK9)
T3 sequence (P59996 152-691): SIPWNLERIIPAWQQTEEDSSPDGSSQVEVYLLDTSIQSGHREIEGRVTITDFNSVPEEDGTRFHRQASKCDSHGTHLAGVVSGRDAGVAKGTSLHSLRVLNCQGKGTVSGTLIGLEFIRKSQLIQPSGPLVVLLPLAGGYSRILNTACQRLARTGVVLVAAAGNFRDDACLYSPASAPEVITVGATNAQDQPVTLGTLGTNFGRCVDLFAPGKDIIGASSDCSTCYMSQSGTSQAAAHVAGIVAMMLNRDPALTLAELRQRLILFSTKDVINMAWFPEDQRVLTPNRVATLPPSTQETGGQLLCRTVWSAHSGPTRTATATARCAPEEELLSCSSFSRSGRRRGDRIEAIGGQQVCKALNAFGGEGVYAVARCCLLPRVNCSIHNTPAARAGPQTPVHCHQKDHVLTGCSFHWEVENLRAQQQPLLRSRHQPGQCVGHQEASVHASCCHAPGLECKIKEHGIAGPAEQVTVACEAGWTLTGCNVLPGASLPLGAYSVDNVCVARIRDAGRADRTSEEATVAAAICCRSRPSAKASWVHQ
Source text: The duration of the cholesterol repression was also dose dependent, ranging from 1 to 21 days.

[7] = Example 6 clinical study: safety and immunogenicity; type: in vivo, human; conditions: IV every 4 weeks, stable daily statin
Protocol: Subjects were seen periodically in the clinic for safety assessments and collection of blood for safety labs, lipid profiles, PK, PD, and immunogenicity samples. Telephone contacts were made prior to each visit to remind them of the 10-hour fasting requirements, during screening and on Day 3 to assess adverse events and document the contact in the subject's source document. […] Infusion rates were carefully controlled by an infusion device per protocol. Infusions were administered as a single infusion over approximately 60 minutes.

[8] = Example 3 clinical study: safety and adverse events; type: in vivo, human
Protocol: as §1

[9] = IV every 4 weeks, stable daily statin
[10] = single IV 0.5 or 4 mg/kg + atorvastatin 40 mg daily

T1 sequence (Q80W65 156-694): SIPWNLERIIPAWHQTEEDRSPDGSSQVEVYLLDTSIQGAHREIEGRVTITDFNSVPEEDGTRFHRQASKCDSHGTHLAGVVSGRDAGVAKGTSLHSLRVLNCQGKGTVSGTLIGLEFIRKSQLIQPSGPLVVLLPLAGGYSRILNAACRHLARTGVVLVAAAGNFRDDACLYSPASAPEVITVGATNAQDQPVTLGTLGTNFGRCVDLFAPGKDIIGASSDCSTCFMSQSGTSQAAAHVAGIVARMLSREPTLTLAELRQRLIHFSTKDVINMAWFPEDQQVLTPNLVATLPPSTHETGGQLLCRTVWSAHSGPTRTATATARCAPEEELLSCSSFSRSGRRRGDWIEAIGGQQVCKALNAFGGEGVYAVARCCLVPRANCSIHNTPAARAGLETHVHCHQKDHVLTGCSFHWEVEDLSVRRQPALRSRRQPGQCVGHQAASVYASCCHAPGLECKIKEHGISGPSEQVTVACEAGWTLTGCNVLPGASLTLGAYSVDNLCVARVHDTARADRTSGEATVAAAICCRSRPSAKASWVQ
T1 sequence (Q80W65 35-155 partner limits assumed): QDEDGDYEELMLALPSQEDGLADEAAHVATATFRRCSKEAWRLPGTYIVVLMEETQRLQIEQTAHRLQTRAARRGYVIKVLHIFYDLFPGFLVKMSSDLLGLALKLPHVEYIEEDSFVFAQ

B1: L1L3: humanized (<5% murine residues) monoclonal PCSK9 antagonist antibody that binds to secreted PCSK9; VH SEQ ID NO: 11, VL SEQ ID NO: 12 (antibody, V domains shown)
VH: QVQLVQSGAEVKKPGASVKVSCKASGYTFTSYYMHWVRQAPGQGLEWMGEISPFGGRTNYNEKFKSRVTMTRDTSTSTVYMELSSLRSEDTAVYYCARERPLYASDLWGQGTTVTVSS
VL: DIQMTQSPSSLSASVGDRVTITCRASQGISSALAWYQQKPGKAPKLLIYSASYRYTGVPSRFSGSGSGTDFTFTISSLQPEDIATYYCQQRYSLWRTFGQGTKLEIK
modifications: heavy chain variable region; light chain variable region
Serum cholesterol reduction vs saline treated controls (PCSK9 [1]; 48 hours post treatment): 37%
Serum cholesterol levels (PCSK9 [1]; 4 days post-treatment): 44 mg/dL
Serum cholesterol reduction vs control animals (PCSK9 [1]; 4 days post-treatment): 47%
Serum cholesterol levels (recovered) (PCSK9 [1]; day 7 post-treatment): 69 mg/dL
Serum cholesterol levels (PCSK9 [1]; normal diet, 48 hours post treatment): 47 mg/dL
AUCinf ([2]; 0.5 mg/kg L1L3 + atorvastatin): 46338 ng·days/mL
AUCt ([2]; 0.5 mg/kg L1L3 + atorvastatin): 38310 ng·days/mL
CL ([2]; 0.5 mg/kg L1L3 + atorvastatin): 10.8 mL/day/kg
Cmax ([2]; 0.5 mg/kg L1L3 + atorvastatin): 13.827 µg/mL
Vss ([2]; 0.5 mg/kg L1L3 + atorvastatin): 0.0402 L/kg
AUCinf ([2]; 4 mg/kg L1L3 + atorvastatin): 777167 ng·days/mL
AUCt ([2]; 4 mg/kg L1L3 + atorvastatin): 726337 ng·days/mL
CL ([2]; 4 mg/kg L1L3 + atorvastatin): 5.2 mL/day/kg
Cmax ([2]; 4 mg/kg L1L3 + atorvastatin): 105.048 µg/mL
Vss ([2]; 4 mg/kg L1L3 + atorvastatin): 0.0523 L/kg
Discontinuation due to treatment emergent adverse events (TEAEs) [3]: no subjects discontinued
Intensity of TEAEs [3]: majority of TEAEs were mild in intensity; none were severe
Serious adverse events [3]: no serious adverse events occurred
Estimated β-phase half-life ([4]; single i.v. 0.1 mg/kg): 16.1 h
Estimated β-phase half-life ([4]; single i.v. 1.0 mg/kg): 45.8 h
Estimated β-phase half-life ([4]; single i.v. 3.0 mg/kg): 55.9 h
Estimated β-phase half-life ([4]; single i.v. 10.0 mg/kg): 83.8 h
Estimated β-phase half-life ([4]; single i.v. 100.0 mg/kg): 126 h
LDL-C lowering (PCSK9 [5]; 3 mg/kg and 6 mg/kg dosing regimens, persisted for 28 days (FIG. 16)): greater than 30%
LDL-C lowering, % below baseline (PCSK9 [5]; 3 mg/kg dosing regimen, stable daily statin): about 50%
LDL-C lowering, % below baseline (PCSK9 [5]; 6 mg/kg dosing regimen, stable daily statin): about 65%
Effect on triglycerides (PCSK9 [5]; [9]): No effect
Elevation of HDL (PCSK9 [5]; [9]): up to 9%
Difference in LS means (Test-Reference) of percentage changes from baseline for LDL-C (PCSK9 [5]; L1L3 0.25 mg/kg vs. Placebo on Day 85, MMRM): 2.67
Difference in LS means (Test-Reference) of percentage changes from baseline for LDL-C (PCSK9 [5]; L1L3 1 mg/kg vs. Placebo on Day 85, MMRM): 0.83
Difference in LS means (Test-Reference) of percentage changes from baseline for LDL-C (PCSK9 [5]; L1L3 3 mg/kg vs. Placebo on Day 85, MMRM): −38.92
Difference in LS means (Test-Reference) of percentage changes from baseline for LDL-C (PCSK9 [5]; L1L3 6 mg/kg vs. Placebo on Day 85, MMRM): −50.14
Non-fasting serum triglyceride levels, maximum increase (PCSK9 [6]; single IP 80 mg/kg): approximately three
Serum cholesterol reduction, maximum effect (PCSK9 [6]; single IP 10 and 80 mg/kg, 48 hours post dosing): 50%
Anti-drug antibodies (ADA) [7]: No subject had positive ADA
Safety and tolerability [7]: generally safe and well-tolerated
Changes in LFTs, CK, ECGs, and BP ([7]; in most cases considered not related to treatment): transient, mild in nature
Discontinued subjects [8, 10]: no discontinued subjects
Intensity of TEAEs [8, 10]: none were severe in intensity
Serious adverse events (SAE) [8, 10]: one serious adverse event (SAE), i.e. worsening of migraine headache, which was not drug-related
Alanine aminotransferase (ALT) and/or aspartate aminotransferase (AST) elevation (TEAEs) ([8]; transient, without clinical signs/symptoms, all resolved within one week): greater than 3 ×ULN
